Laboratory results taken from article PMC5748854 (The Journal of Experimental Medicine, 2018).

Molecular target: C-PfCSP (recombinant PfCSP C terminus, linker and αTSR subdomains) (Plasmodium falciparum NF54, UniProt P19597)
Assay: ELISA

binding result: binds
B1: 1710 IgG (antibody, V domains shown)
VH: EVQLQESGGGLVKPGGSLRLSCAASGFTFSSYSMNWVRQAPGKGLEWVSSITSSSSYIYYADSVKGRFTISRDNAKNSLYLQMNSLRAEDTAVYYCARDPGIAAADNHWFDPWGQGTLVTVSS
VL: not shown
